Literature values, collected in PMC5319408.

Molecular target: cytochrome P450cam (CYP101, oxidized) (Pseudomonas putida) (UniProt P00183)
Chain of UniProt P00183 (P00183 2-415): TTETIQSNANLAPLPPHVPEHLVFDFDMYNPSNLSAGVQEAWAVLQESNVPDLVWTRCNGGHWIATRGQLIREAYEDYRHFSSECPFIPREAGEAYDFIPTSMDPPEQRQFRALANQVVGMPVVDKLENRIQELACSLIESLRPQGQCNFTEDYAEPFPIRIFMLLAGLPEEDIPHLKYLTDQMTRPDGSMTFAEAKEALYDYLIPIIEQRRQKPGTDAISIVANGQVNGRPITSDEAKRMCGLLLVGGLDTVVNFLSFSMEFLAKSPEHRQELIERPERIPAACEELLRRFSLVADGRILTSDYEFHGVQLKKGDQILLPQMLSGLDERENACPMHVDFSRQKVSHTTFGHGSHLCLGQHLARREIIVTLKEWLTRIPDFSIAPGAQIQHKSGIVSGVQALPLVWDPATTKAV

putidaredoxin (oxidized) (from UniProt P00259)
Kd: 17 µM
